Data as given in the DeepSol protein solubility set.

assay: soluble on expression in E. coli; label from the status in PepcDB or PDB records

Row | Sequence | soluble on expression in E. coli
1 | MFRKESTILVLGSKVRGAQPGHVLRWRLEHALELSRHTTGPIVVSGKGEAYVMDDWLIRHGVDYRRLIVEPEATSTNENIENAHALLPDTHEWLVVTSDFHKLRTLAWARHLGVPIRVSSAVTKPPFRVNNFVRECFALPHSLLRIAWRRLLAAAALEHHHHHH | not soluble
2 | MFSFNMFDHPIPRVFQNRFSTQYRCFSVSMLAGPNDRSDVEKGGKIIMPPSALDQLSRLNITYPMLFKLTNKNSDRMTHCGVLEFVADEGICYLPHWMMQNLLLEEGGLVQVESVNLQVATYSKFQPQSPDFLDITNPKAVLENALRNFACLTTGDVIAINYNEKIYELRVMETKPDKAVSIIECDMNVDFDAPLGYKEPERQVQHEESTEGEADHSGYAGELGFRAFSGSGNRLDGKKKGVEPSPSPIKPGDIKRGIPNYEFKLGKITFIRNSRPLVKKVEEDEAGGRFVAFSGEGQSLRKKGRKP | soluble
3 | MFSPQAYLIFNMRKPPFDNIKVRQAVMHAFNRKLVVDNIFFGLGKISTSPFVPTEMFFDKDIPAIPFDMKKARALIKESGINPGDYTIRQLSFPYGATWDRLGEYTKQALEQLGFKVNVESTDAGGWASRTGNWDFDLTTTYSYQYGDPALGVQRLYVTSNIVKGSPFANMQGYSNPESDKLWEQAAAEVDPAKRQELYNKIQALLVAEVANGFLVDME | not soluble
4 | MFSSIGWPEIFTVLILGLIIIGPERLPKVIEDVRAAIYAAKKAINNAKEELNGNLGAEFDEFREPINKIASIQRMGPKAVLTKALFDEDENFMDNFDPKKIMASGTEGEAYRERGINPQPAGDSASPQTPSNKESQPKAGFSWDDIT | not soluble
5 | MFSTGSGELCDSSAARAGGSMIHPILAKVTQNLTERSREARAAFIARSQAQEKAGKGRTSLSCGNLAHAVAASCSTEKKAILDFTRSNVAIVTSYNDMLSAHQPYQHYPDRIKMVLAEYGHTAQVAGGVPAMCDGVTQGQPGMDMSLFSRDLIAQATALSLSHNVFDATLLLGICDKIAPGQLMGALSYAHLPTAFMPAGLMATGISNEEKVDIRQKYAAGEVGKDALLNMECQAYHAPGTCTFYGTANTNQLVFEAMGLMLPGSAFVHPHSALRQALNDDATVKIASMTQGSAQYRPLYQVVTEKSLLNGIVALLASGGSTNHTIHMLAVARAAGILLTWQDISDLSDVVPLLAKVYPNGPADMNAFQQAGGVPALMKRLHESKLLHSDVTPVFGEFRDQLTLPELVDGELCWKACEGTRDAQVIAASGECFQTTGGTKMLNGNLGRAVIKVSAVKEEQRIIEAPAVVFQCQHQVEAAYQRGELNKDCIVVVTHNGPAANGMPELHKLMPILGNVQKAGFKVALVTDGRLSGASGKIPSAIHVSPEAVRGGAIGLVRDGDLLRLDCTTGTLENLTDMSHRQALALDTERDQQMWGRELFKVMRQAVSSAEQGASFIV | not soluble
6 | MFVYYIYTIIKSQSKSTPHHYHPCWSNSAAGLKKWGGFMNIKNNRRRRASRDAIENIFIELLQTKSLNEITVSDICKKAGLNRSTFYANYMDIYQLADTIRETLEDNLNDLYRSEIAGGYNSNDYLPLFRHIKENQPFYNTYFKLGYDNQYKIFKYDTALARDHFGNRFIDYHCEFFKSGITAIIKHWLSNGCLETPEEINGILMSEYRGRKMEET | not soluble
7 | MGAAGDAAIGRESRELMSAANVGRTISRIAHQIIEKTALDDPVGPDAPRVVLLGIPTRGVTLANRLAGNITEYSGIHVGHGALDITLYRDDLMIKPPRPLASTSIPAGGIDDALVILVDDVLYSGRSVRSALDALRDVGRPRAVQLAVLVDRGHRELPLRADYVGKNVPTSRSESVHVRLREHDGRDGVVISRGSHHHHHH | soluble
8 | MGAIEDVYADLDTDVSIEEFREAVESKVEQMGGLADEETAAMLIAHEIDDGEVNGVADIDSEMDEVKFIAKVTRVGDVRTFDREDADDDDAAAEGRVVNVTVADETDDVRVSLWDEQATAAADDLAPGDVLRIKGRPTDGYNGLEVSADEVELDADEQIDVQIQDEYDAADLSLGVSDVTLVGEVLDTEAVRTFDRDDGSEGRVSNLVVGDETGRVRVTLWDDQADTATDLDAGAVVEIVDGYVREREGSLELHVGDTGAVTPVPDADVSFVPDTTSIDSLEQDDTADIAGVVRSVDPTRTFDRDDGSEGQVRNVRLQDDTGDIRVALWGEKADLDIGPGDEVAALDVEIQDGWQDDIEASAGWQASVIPLSDSTQDDAAAGSDGPDRGLAAFGADSDDEPAATDDAADTQTPHSDTPVEFTGVVVQAQDPLILDDGEETMSVTTDADVTLGQEVTVRGSLDDGRLHADDVTESLEHHHHHH | not soluble
9 | MGCAEEKKTDVRWATFNIRYDNPQDSLNNWQYRKDRVCQFIKDHELDIVGMQEVLHNQFQDLRAGLPEYDGIGVGRDDGKTAGEYAPLFYRKDKYEVLDSNTFWLAENPDSVGMMGWDAVCVRIATWAKFKDKATGKIFMAVNTHFDHVGEEARRQSALLIIRKIKEIVGERPAVVTGDFNVTDASDAYETITTNEFVMKDAYKTAARVTGVDYTFHDFARIPAEDCEKIDFIFVTPQVLVKSCEIPAEVPEALLSDHNPQLADLELEHHHHHH | not soluble
10 | MGCEPKRDCGCCQNSICEFLQSLEPYTKVESIIIAGNEIAVSYFLSFNKKTGIVSFVQEDNEVIFVDCSKIDAIRIGKVCSCKTKVKYIEEDFSLLGNVCPHCLTEGSTIFFDFNNPELNVSFQATTINPPRCTEFTDDLGNVVKQITIVGEAKVSRDFVQVPELVGFRLLLSHLAGDPLNYGLLFINFPDTIFIFILASSGYLSISNCLKIEGGTGDAEIEEMKKMIEDDVNTYKSVVKLTKVYKNGETESFIYKNEL | not soluble
11 | MGCGQLDRVDSILVGMSYYNFPSPQGIGNVLVGKAKQTVRIRIPSTNLRKEVVRVGGLLSVSVMAVALSSCSAHPESSLSKSNQLGYAVNDRLVTTNAGSTEGASTNAQLLAGRLYPAPYVSGPKGQLIPNLSMASAQVLPGINQKIVYTISPDAVYSDGEAVTCDDYLLAFTAGTYDYVFDSYMPLMKQIDKVECKPRDREVTVTLKENFGPRWRQLFPAGVILPAHAIARKMGVTLEDLNTVLQSRDVDALQPIAEVWNRGFSLDQFDPDLQVSSGPYKVDRVGDRGEVYLTRNPHYGGQPAEIESVVVWPKGANLKELKDTGSLEIAEVTSSKEIDWLDRNDSTNSFDVQAQSGVLTEELLLANAGVFATRENRQAFASCIDQSSIASESSELSGVEVAPVTARTIRANDPMAGHVKDLTEAHLHSDVEQARRLAGQTIAIGYEGPDARMEAIVANIRRSCEPAGIIVVDAHQEGSGIRDLSRSFTTDHGYQFDKIGTIDVVLKALDPATEFESVATTSNNIAATRQAELSTWDVVPSIPLASQPRVFVVDRRVSNVVLNTDLAGIGWNMDRWFFSKNSK | not soluble
12 | MGCSSQTHSSQKETTIPVTLHVEDAKGLPVEGVQVTIVKAPSSDEEPSTEIGEILGKTDKNGDIKWDTGRKGDYSVALTKGETSVTHHISLTEDKKDHAIPLVFKELEHHHHHH | soluble
13 | MGDILAHESELLGLVKEYLDFAEFEDTLKTFSKECKIKGKPLCKTVGGSFRDSKSLTIQKDLVAAFDNGDQKVFFDLWEEHISSSIRDGDSFAQKLEFYLHIHFAIYFLKYSVGRPDKEELDEKISYFKTYLETKGAALSQTTEFLPFYALPFVPNPMVHPSFKELFQDSWTPELKLKLEKFLALISKASNTPKLLTIYKENGQSNKEILQQLHQQLVEAERRSVTYLKRYNKIQADYHNLIGVTAELVDSLEATVSGKMITPEYLQSVCVRLFSNQMRQSLAHSVDFTRPGTASTMLRASLAPVKLKDVPLLPSLDYEKLKKDLILGSDRLKAFLLQALRWRLTTSHPGEQRETVLQAYISNDLLDCYSHNQRSVLQLLHSTSDVVRQYMARLINAFASLAEGRLYLAQNTKVLQMLEGRLKEEDKDIITRENVLGALQKFSLRRPLQTAMIQDGLIFWLVDVLKDPDCLSDYTLEYSVALLMNLCLRSTGKNMCAKVAGLVLKVLSDLLGHENHEIQPYVNGALYSILSVPSIREEARAMGMEDILRCFIKEGNAEMIRQIEFIIKQLNSEELPDGVLESDDDEDEDDEEDHDIMEADLDKDELIQPQLGELSGEKLLTTEYLGIMTNTGKTRRKGLANVQWSGDEPLQRPVTPGGHRNGYPV | not soluble
14 | MGDTFIRHIALLGFEKRFVPSQHYVYMFLVKWQDLSEKVVYRRFTEIYEFHKTLKEMFPIEAGAINPENRIIPHLPAPKWFDGQRAAENRQGTLTEYCSTLMSLPTKISRCPHLLDFFKVRPDDLKLPTDNQTKKPETYLM | soluble
15 | MGEHICFRRNERLATVNPYWRGNPMVRGRFFNRQHRFRPGMGSVLKWRLSPNPQRKEKKTVKWDPKVCYLRSLDAVVGDSLIWLGHNSFFLQLAGKRIMFDPVFGNIPFVKRQSEFPANPDIFTEIDYLLISHDHFDHLDKQSITRLLNNNPQMKLFCGLGTGELIKSWFPEMRVIEAGWYQQLEDEGLKITFLPAQHWSKRSVRDGGQRLWGAFMLQGNGVSLYYSGDTGYSTHFREIPDLFGAPDYALLGIGAYKPRWFMRPNHISPYESLTASEEMHAGITIPMHYGTFDLSDEPLHDPPKVFAAEAKKRKIRVEIPYLGEIVKLSKRK | not soluble
16 | MGEHKQNLSLQDMTHSDTGQIAYLKKVCTDDLAKNFPDLPPMTPGITVWALFGETGYPIILSDERSIALAGANEHELQIVTLH | not soluble
17 | MGEIQVVAFRLGDEEFCLEISKVREIKEMMPITRVPNAPDFVEGVINLRGQITTVINLKKLLGYYDDGDLSNKKIIIAEVNGEIVGVIVDSVSDVITLTEDQIEQPPKTLASRVDMKAIKGIAKINNGERLLIMLDLDKLIGESF | soluble
18 | MGFFSGQFSNVVEWEEFREDMIFWKWHNREIKRGSKLIIRPGQDAIFLFNGRIEGIFKDEGDYDIESQIIPFLSTLQGFKFGFNSGMRAEVLFVNTKEFTAKWGTKSAINIPTPQLPGGIPIRANGTFTFKVNDYVKLIDRIAGVKDSFLVEDVRLRIMALLDQLMMKWIVQEGRDMFNLQSNSFAIADGLKTDLDMQIYDMGITVSQLTIMSFTYPEEIQQMIAKAASHTMIGDMGRYQQVSVLDGIAGGKLEHHHHHH | not soluble
19 | MGFIMLLRSRFLKVIHVRKQLSACSRFAIQTQTRCKSTDASEDEVKHFQELAPTWWDTDGSQRILHKMNLTRLDFVQRTVRNQVKIQNPEIFVPGFNYKEFLPEYVCDNIQREMQESIETNLDKRPEVSVLDVGCGGGILSESLARLKWVKNVQGIDLTRDCIMVAKEHAKKDPMLEGKINYECKALEDVTGQFDIITCMEMLEHVDMPSEILRHCWSRLNPEKGILFLSTINRDLISWFTTIFMGENVLKIVPKGTHHLSKYINSKEILAWFNDNYSGQFRLLDLKGTMYLPYQGWVEHDCSDVGNYFMAIQRLN | not soluble
20 | MGFLEDKKRTLMNLELAIREGLVDEEIIPILNKINEIDNYYTTSSCIGRVGIMEIPKDKNPKLYSRWLGKWHHYASYDELFNALKNKKEGYIVFVMNSPILHIACKDIESAKKMLELAIHSGLKASSIKSISDKRVIVEILTTYKVDTPIGEDGEIFVDNNYLKFLLDYSNSKLKRAREILMRWANRLDELKK | soluble
21 | MGGIFSKKEKSPKSAPVSDQDNAILALKTQRDKMKQMIKRKENCLEKERQLAKQLIKDGRKDRALLLLKKKRYQEKIIDQTLNHLSKIEQMVNDLEFAEVQQRVTDGLRQGNEALKKMNQLFDIDEIDRIMEETKEAAEYQEEISNMLSGQLSNTDVSDVEKELEDLLAAEWGTVQLPEAPSHELPEAERERQKEKEKPRREKIALEA | not soluble
